Molecular target: 6xHis-PDE6D (UniProt O43924 1-150)
Assay: fluorescence polarisation

6xHis-PDE6D, sequence (O43924 whole entry): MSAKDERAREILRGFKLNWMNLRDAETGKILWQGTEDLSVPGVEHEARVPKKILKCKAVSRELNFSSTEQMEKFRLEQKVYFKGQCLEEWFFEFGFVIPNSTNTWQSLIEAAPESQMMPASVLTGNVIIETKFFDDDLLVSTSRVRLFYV

B1: Wild-type K-Ras peptide (FAM-KKKKKKSKTKC-Far-OMe) (peptide)
peptide: KKKKKKSKTKC
modifications: FAM on the N-terminus; C-terminal cysteine farnesylated (Far) and carboxymethylated (OMe)
Kd: 200 nM

— article doi:10.1101/2025.09.29.679187 (bioRxiv, 2025)
